The results in this text go back to the RNAGym collection of RNA variant scans (doi:10.1073/pnas.2313332121).

The labels stand for the following.
B1: TPR t1 (parent)
chain: GACCAAUCUGCCCUCAGAGCUCGAGAACAUCUUCGGAUGCAGAGGAGGCAGGCUUCGGUGGCGCGAUAGCGCCAACGUCCUCAACCUCCAAUGCAUCCCACCACAUGAUGAUGCCUGAAGAGCCUUGGUUUUUUG

Variants of B1 are the subject of the data set. Put plainly: polymerase ribozyme fitness, log enrichment relative to wild type (log ratio); higher = more active; in vitro selection for triplet polymerase activity. Summed up:
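Streptavidin-bead capture of gel-excised extended constructs, followed by RT-PCR, closed a single triplicate in vitro selection round. That round began by annealing PCR-built, transcribed mutant libraries of each subunit of a heterodimeric triplet polymerase ribozyme with a biotinylated primer, the partner subunit and triplets, then incubating them frozen at −7 °C. After Illumina sequencing of inputs and outputs, genotypes needed ≥10 input reads and ≥1 read per output. Fitness is the base-2 logarithm of genotype enrichment over wild-type enrichment, using inverse-variance-weighted replicate averages.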
As for GACCAAUCUGCCAUCAGAGUUCGAGAACAUCUUCGGAUGCAGAGGAGGCAGGCUUCGGUGUCGCGAUAGCGCCAACGUCCUCAACCUCCAAUGCAUCCCACCACAUGAUGAUGCCUGAAGAGCCUUGGUUUUUUG [C13A C20U G61U], the “polymerase ribozyme fitness (log ratio)” value is -2.05.

Regarding GACCAAUCUGCCCUGAGAGCUCGAGAACAUCUUCGGAUGCAGAGGAGGUAGGCUUCGGUGGCGCGAUAGCGCCAACGACCUCAACCUCCAAUGCAUCCCACCACAUGAUGAUGCCUGAAGAGCCGUGGUUUUUUG [C15G C49U U78A U125G], the “polymerase ribozyme fitness (log ratio)” value was -3.37.

As to GACCAAUCUGCCCUCAGAGCUCGAGAACAUCUUCGGAUGCAGAGGAGGCAGGCUUCGGUGGCGCGAUAUCGCCAAUGUCCUCAACCUCCAAUCCAUCCCACCACAUGAUGAUGCCUGAAGAGCCUUGGUUUCUUG [G69U C76U G93C U132C], the “polymerase ribozyme fitness (log ratio)” value is -2.06.

For the variant GACCAAUCUGCCCUCAGAGCUCGAGAACAUCUUCGGAUGCAGAGGAGGCAGGCUUCGGAGGCGCGAUAGUGCCAACGUCCUCAACCUCCAAUGCAUCCCACAACUUGAUGGUGCCUGAAGAGCCUUGAAUUUUUG [U59A C70U C102A A105U A111G G128A U129A], the “polymerase ribozyme fitness (log ratio)” value is -5.83.

Regarding GACCAAUCUGCCCUCAGAGCUCGAGAACAUCUUCGGUUGCAGAGGAGGCUGGCUUCGGUGGCGCGAUAGCGCCAACGUCCUCAACCUCCAAUGUAUCCCACCACAUGAUGAUGCCUGAAGAGCCUUGGUUUUUUG [A37U A50U C94U], the “polymerase ribozyme fitness (log ratio)” value was -1.81.

Take GACCAAUCUGCCCUCAGAGCUCGAGAACAUCUUCGGAUGCAGAGGAGGCAGGCUUCGGUGGCGCGAUAGCGACAACGUCCUAAACCUCCAAUGCAUCCCACCACAUGAUGAUGCCUGAAGAGCCUUGGUUUUUUG [C72A C82A]: the “polymerase ribozyme fitness (log ratio)” value turned out to be 0.281.

For GACCAAUCUGCCCUCAGAGCUCGAGAACAUCUUCGGAUGCAGAGGAGGCAGGCUUCGGUGGCGCGGUAGCGCCAACAUCCUCAACCUCCAAUGUAUCCCACCACAUGAUGAUGCAUGAAGAGCCUUGGUUUAUUG [A66G G77A C94U C115A U132A], the “polymerase ribozyme fitness (log ratio)” value was -0.858.

Take GACCAAUUUGCCCUCAGAGCUCGAGAACAUCUUCGGAUGCAGAGGAGGCAGGCUUCGGUGGCGCGAUAGCGCCAACGUCCUCAACCUUCAAUGCAUCCCACCACAUGAUGAUGCCUGAAGAGCCUUGGUUUUUUG [C8U C88U]: the “polymerase ribozyme fitness (log ratio)” value was found to be 0.472.

As to GACCAAUCUGCCCUCAGAGCUCGAGUACAUCUUCGGAUGCAGAGGAGGCAGGCUUCGGUGGCGCGAUAGCGCCAACGUCCUCAACCUCCAAUGCAUCCCACCACAUGAUGAUGCCUAAAGAGCCUUGGUUUUUUG [A26U G117A], the “polymerase ribozyme fitness (log ratio)” value was -5.38.

Consider GACCAAUCUGCCCUCAGAGCUCGAGAACAUCUUCGGAUGCAGAGGACGCAGGCUUCGGUGGCGCGAUAGCGCCAACGUCCUCAACCUCCAAUGCAUCCCACCACAUGGUGAAGCCUGAAGAGCCUUGGUUUUUUG [G47C A108G U112A], for which the “polymerase ribozyme fitness (log ratio)” value was -5.05.

GACCAAUCUGCCCUCAGAGCUCGAGAACAUCUUCGGAUGCAGAGGAGGCAGGCUUCGGUGGAGCGAUAGCGCCAACGUCCUUAACCUCCAAUGCAUCCCACCACAUGAUGAUGCCUGAAGAGCCUUGGUUUUUUG [C62A C82U]: the “polymerase ribozyme fitness (log ratio)” value was -0.465.

GGCCAAUCUGCCCUCAGAGCUCGAGAACAUCUUCGGAUGCAGAGGAGGCAAGCUUCGGUGGCGCGAUAGCGCGAACGUCCUCAACCUCCAAUGCAUCCCACCACAUGAUGAUGCCUGAAGAGCCUUGGUUUUUUG [A2G G51A C73G]: the “polymerase ribozyme fitness (log ratio)” value was -2.89.

Consider GACCAAUCUGCCCGCAGAGCUCGAGAACAUCUUCGGAUGCAGAGGAGGCAGGCUUCGGUGGCGCGAUAGCGCCAACGUCCUCAACCUCCAUUGCAUCCCACCACAUGAUGAUGCCUGAAGAGCCUUGGUUUUUUG [U14G A91U], for which the “polymerase ribozyme fitness (log ratio)” value was -3.73.

With GACCAAUUUGCCCUGAGAGCUCGAGAACAUCUUCGGAUGCAGAGGUGGCAGGCUUCGGUGGCGCGAUAGCGCCAACGUCCUCAACCUCCAAUGCAUCCCACCACAUGAUGAUACCUGAAGAGCCUUGGUUUUUUG [C8U C15G A46U G113A], the “polymerase ribozyme fitness (log ratio)” value was -5.27.

For GACCAAUCUGCCCUCAGAGCUCGAGAACAUCUUCGGAUGCAGAGGAGGCAGGCUUUGGUGGCGCGAUAGCGCCAACGUCCUCAACCUCCAAUGCAUCCCACCACAUGAUGAUGCUUGAAGAGCCUUGGUUUUUUG [C56U C115U], the “polymerase ribozyme fitness (log ratio)” value was -0.661.

For GACCAAUCUGCCCUCAGAGCUCGAGAACAUCUUCGGAUGCAGAGGAGGCAGGCUUCGGUGGCGCGAUAGCGCCAACGUCCUGAACCUCCAAUGCAUCCCACCACAUGAUGAUACCUGAAGAGCCUUGGUUUUUUG [C82G G113A], the “polymerase ribozyme fitness (log ratio)” value is -1.04.

GACCAAUCUGCCCUGAGAGCUCGAGAACAUCUUCGGAUGCAGAGGAGGCUGGCUUCGGUGGCGCGAUAGCGCCAACGUCCUCAACCUCCAAUGCAUCCCACCACAUGAUGAUGCCUGAAGAGCCUUGGUUUUUUG [C15G A50U]: the “polymerase ribozyme fitness (log ratio)” value is -3.73.

Take GACCAAUCUGCCCUCAGAGAACGAGAACAUCUUCGGAUGCAGAGGAGGCAGGCUUCGGUGGCGCGAUAGCGCGAACGUCCUCAACCUCCAAUGCAUCCCACCACAUGAUGAUGCCUGAAGAGCCUUGGUUUUUUG [C20A U21A C73G]: the “polymerase ribozyme fitness (log ratio)” value was -4.94.

For GACCAAUCUGCCCUCAGAGCUCGAGAUCAUCUUCGGAUGCAGAGGAGGCAGGCUUCGGUGGCGCGAUAGCGCCAACGUCCUCAACCUCCAAUGCAUCCCACCACAUGAUGAUGCCUGACAAGCCUUGGUUUUUUG [A27U A119C G120A], the “polymerase ribozyme fitness (log ratio)” value is -2.76.

As to GACCAAUCUGCUCUCAGAGCUCGAGAACAUCUUCGGAUGCAGAGGAGGCAGGCAUCGGUGGCGCGAUAGCGCCAACGUCCUCAACCUCCAAUGCAUCCCACCACAUGAUGAUGCCUGAAGAGCCUUGGUUUUUUG [C12U U54A], the “polymerase ribozyme fitness (log ratio)” value was found to be 0.369.

For GACCAAUCUGCCCUCAGAGCUCGAGAAAAUCUUCGGAUGCAGAGGAGUCAGGUUUCCGUAGCGCGAUAGCGCCAACGUCCUCAACCUCCAAUGCAUCCCACCACACGAUGAUGCCUGAAGAGCCUUGGUUUUUUG [C28A G48U C53U G57C G60A U106C], the “polymerase ribozyme fitness (log ratio)” value was -5.56.
